Assay results published in patent CN115028722A (BIOCELLS BEIJING BIOTECH CO LTD, dated 2022).

Assays:
[1] = target: T1, 包含有His标签的重组人源TSLP蛋白(rhTSLP-His) (human); assay: cell ELISA: antibody blocks binding of rhTSLP-His to hTSLPR/hIL-7Rα-293T/17 cells
T1 construct: also called rhTSLP-His重组蛋白; rhTSLP-His蛋白

[2] = target: T1, 包含有His标签的重组人源TSLP蛋白(rhTSLP-His); assay: ELISA as in Example 6, rhTSLP-His coated
[3] = target: T1, 包含有His标签的重组人源TSLP蛋白(rhTSLP-His); assay: ELISA, rhTSLP-His coated at 100 ng/well
[4] = target: T1, 包含有His标签的重组人源TSLP蛋白(rhTSLP-His); assay: cell ELISA: antibody blocks binding of 100 ng rhTSLP-His to hTSLPR/hIL-7Rα-293T/17 cells

Row | Binder | IC50 [1] [µg/mL] | EC50 [2] [nM] | EC50 [3] [nM] | IC50 [4] [µg/mL]
1 | 抗TSLP人源化单克隆抗体M432-69H13L (antibody, human IgG2, lambda, V domains shown) VH: EVQLVQSGAEVKKPGATVKISCCASAYSFTTYWMHWVQQAPGKGLEWMGLIDPSDSETTLNQKFKDRVTLTVDKSTDTAYMELSSLRSEDTAVYYCARSLDGYFDYWGQGTTVTVSS VL: DIQLTQSPSSLSASVGDRVTITCRAGENIYSYLAWYQQKPGKAPKLLVYNAKILAEGVPSRFSGSGSGTDFTLTISSLQPEDFATYYCQHHYDTPWTFGGGTKLTVLG | 4.35 | 4.05 |  | 
2 | 抗TSLP人源化单克隆抗体5F10-69H13L (antibody, human IgG2, lambda, V domains shown) VH: EVQLVQSGAEVKKPGATVKISCCASGYSFTSYWMHWVQQAPGKGLEWMGLIDPTDSEISLSQKFKDRVTLTVDKSTDTAYMELSSLRSEDTAVYYCARSLDGFFDQWGQGTTVTVSS VL: DIQLTQSPSSLSASVGDRVTITCRAGENIYSYLAWYQQKPGKAPKLLVYNAKILAEGVPSRFSGSGSGTDFTLTISSLQPEDFATYYCQHHYDTPWTFGGGTKLTVLG | 7.57 | 31.6 |  | 
3 | 抗TSLP人源化单克隆抗体9F8-46H13L (antibody, human IgG2, lambda, V domains shown) VH: QVQLVQSGAEVKKPGASVKVSCCASGYSFTTYWMHWVRQAPGQGLEWMGIIDPSDSETTLNQKFKDRVTLTVDKSTSTAYMELSSLRSEDTAVYYCTRSLDGYFDYWGQGTTVTVSS VL: DIQLTQSPSSLSASVGDRVTITCRAGENIYSYLAWYQQKPGKAPKLLVYNAKILAEGVPSRFSGSGSGTDFTLTISSLQPEDFATYYCQHHYDTPWTFGGGTKLTVLG | 4.05 | 9.52 |  | 
4 | Tezepelumab(安进和阿斯利康合作开发抗体) (antibody, V domains shown) VH: QMQLVESGGGVVQPGRSLRLSCAASGFTFRTYGMHWVRQAPGKGLEWVAVIWYDGSNKHYADSVKGRFTITRDNSKNTLNLQMNSLRAEDTAVYYCARAPQWELVHEAFDIWGQGTMVTVSS VL: SYVLTQPPSVSVAPGQTARITCGGNNLGSKSVHWYQQKPGQAPVLVVYDDSDRPSWIPERFSGSNSGNTATLTISRGEAGDEADYYCQVWDSSSDHVVFGGGTKLTVLG | 8.93 | 1.8 | 2.93 | 6.22

Results, then the binder that gave them:

Row | IC50 [1] [µg/mL] | EC50 [2] [nM] | EC50 [3] [nM] | IC50 [4] [µg/mL] | Binder
5 |  |  | 12.4 | 13.4 | 鼠源抗TSLP单克隆抗体5F10-2-25 (antibody, V domains shown, Mouse hybridoma monoclonal antibody) VH: ELQQSGPQLVRPGASVKISCKASGYSFTSYWMHWVKQRPGQGLEWIGLIDPTDSEISLSQKFKDKATLTVDKLSSTAHMQLSSPTSEDSAVYYCARSLDGFFDQWGQGTTVTV VL: DIDLTQSPASLSASVGETVTITCRTSENIYSYLAWYQQKQGKSPQLLVYNAKSLAEGVPSRFSGSGSGTQFSLKINSLQPEDFGSYYCQHHYDTPWTFGGGTKLENKT
6 |  |  | 8.16 | 12 | 鼠源抗TSLP单克隆抗体10D9-M-432 (antibody, V domains shown, Mouse hybridoma monoclonal antibody) VH: VNCKESGPQLVRPGASVKISCKASAYSFTTYWMHWVKQRPGQGLEWIGLIDPSDSETTLNQKFKDKATLTVDKSSSTAYMQLTSPTSEDSAVYYCARSLDGYFDYWGQGTTVTVSS VL: DIDLTQSPASLSASVGETVTITCRAGENIYSYLAWYQQKQGKSPQLLVYNAKILAESVPSRFSGSGSGTQFSLKINSLQPEDFGIYSCQHHYDTPWTFGGGTKLE
7 |  |  | 11.4 | 10.7 | 鼠源抗TSLP单克隆抗体9F8-1-25 (antibody, V domains shown, Mouse hybridoma monoclonal antibody) VH: VQLQQSGPQLVRPGASVKISCKASGYSFTTYWMHWVKQRPGQGLEWIGIIDPSDSETTLNQKFKDKATLTVDKSSSTAYIQLSSPTSEDSAVYYCTRSLDGYFDYWGQGTTVTV VL: DIDLTQSPASLSASVGETVTITCRAGENIYSYLAWYQQKQGKSPQLLVYNAKILAESVPSRFSGSGSGTQFSLKINSLQPEDFGIYSCQHHYDTPWTFGGGTKLE
